How the values were obtained:
Type in all cases: biochemical, Quillaja saponaria
[1] = Experiment 5-1: screening of additional glucosidases for deglycosylation with purified QS-18 (0.04 mg/ml) at pH 7.5 and 30 deg C; conditions: pH 7.5, 30 degrees C, 18 hours, LCMS/MS
Method: The 94 additional genes, together with positive control (DNA encoding SEQ ID No. 262) and negative control, were transformed, expressed, lysed and reacted in the same manner as described above for Experiment 4-1, except the reaction was incubated at 30 degrees C. for 18 hours.
Samples were analysed by LCMS/MS according to the procedure in Experiment 4-1.

[2] = Experiment 5-2: screening of additional glucosidases for deglycosylation with QS-18 in crude bark extract (80%) at pH 6 and 35 deg C; conditions: CBE 80%, pH 6, 35 deg C, 18 hours; UV HPLC
Method in brief: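 Deglycosylation of QS-18 was monitored by UV HPLC after MeCN/AcOH quench with hexanophenone. The reaction ran 18 hours at 35 deg C, shaking, combining clarified pH 6 lysate with crude bark extract neutralised to pH 6 by NaOH.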

[3] = Experiment 5-3: screening of additional glucosidases for deglycosylation with QS-18 in treated bark extract (80%) at pH 6 and 35 deg C; conditions: TBE 80% (QS-21 approx. 4 g/L), pH 6, 35 deg C; UV HPLC
Method: Experiment 5-1 was repeated, replacing CBE with Treated Bark Extract (TBE) at pH 6. TBE was prepared from CBE by PVPP treatment and concentration, to provide TBE with a QS-21 concentration of approximately 4 g/L. TBE was adjusted to pH 6 by dropwise addition of 2M NaOH with stirring.

| Molecule | Experiment 5-1 % conv [1] | Experiment 5-2 % conv [2] | Experiment 5-3 % conv [3] |
| --- | --- | --- | --- |
| 817 (protein, listed as Pseudonocardia sp.) MAHVDEELLGTLIATLDLERKVRLLTGADFWSTPAEPAIGLRRMVLSDGPSGVRGESFDEREPSLSLPSSSALGATWDPAAARRYGSALGAEARRQHADAVLGPTINLHRTPYGGRHFEALSEDPLLTAELAAAYVEGLQAHGVAATPKHYVANDAETERFSVDNRVGDRALRELYLAAFEPVVTRAGAWAVMSAYNAVNGTTMSENPLLAEPLTGEWGFDGLVMSDWGGARSTEASARAEQHLVMPGPVSAWGARLVEAVRDGRVGEDVIDGKVRRLLRLAARVGALDGVPPQVTEPPPAEDGAAVARELAAAGSVLVRNTRADGAAELPWDHAVPGSVAVLGHNAALARTQGGGSATVRPAAVVSPLDGLRAALGADRVRYRLGAQVAEGVQPFDPASITNPVTGGSGLRAVFRDVGGAALRTEDRLSSSLIWMGAEIPEGTDHVEIALRWDAPAGAHRLGAAAVGHVVLVAGGTTVLDADGVLTGDEGPGAAIFEAPSVTAGVTTDGPVDLVLRFRPSGQEAGMPLVAVTVGEETVVDDPDAEIAAAAALAAGTDVAVVVVGTNDRIESEGFDRSTLALPGRQDDLVRAVAAANPRTVVVVNSGAPVLLPWRDEVAAILLGWFGGEQFGEAVADVLLGAAEPGGRLPTTWPGTGRERSVLSGVPSDGVLRYDEGVHAGHRNWLRHGETPAYPFGHGLGYTTWTLDGMSVGRWSADGIDVTVTLTNIGDRPGRQVVQAYLSRDRSDVERPARWLAGWAVVDAAPGTTTVTVPVSRRAFRHRTGTGWATEPGTWTLHLGFSVTDTPLAAEVTTT | 3.5% | <0.5% | <0.5% |
| 840 (protein, listed as Hungatella hathewayi) MNKKIKEILNSLTLEEKASLCSGVGLWQTRPLEDKGIPEIWMADGSNGVRIMKPVNQERKQDTSDFLKVTDLTQNSPTITNQYEAVCYPSGASLASTWDTELIEEMGEALGDECRYFKVNLLLAPGINIKRSPLGGRGYEYYSEDPYLTGKVAESFIKGVQKTGTGTSIKHFAANNAETLRINMSSDVDERALREIYLAPFEIGVKNAKPWTVMSSYNKVNGVQMAENRELLTDILRDEWGFNGVVVSDWGGVKDRIKALEAGNDLDMPENQRSNQSVVDAVRRGILSEAVLDQSVERILELVFKAKEQERFTDDMDFESHRNLSRKVAEESVVLLKNEKGLLPITKEKYKKVAVIGAFAREPRYQGGGCTLVNPIRISRPYEEMEKLAGKNIELTYAKGYELKDETSDELIHEAEEAAREADIAVIFGGLWVAYDREGFDRKHLEIDSSHIRLIEAVSRVQKRVVVVLSNGDAVVMSPWLDHVGAVVEQFLVGETVGEALARVLFGEVNPSGKLPVTFPKRLEDTSAYPYFPGECSHHVYGEGIFVGYRYFDKKKIEPLFPFGYGISYTTFQYSAIRADRSQMKDTDTVTVSVDVTNTGCVKGKEIVQIYVSDEKSRLKRPEKELKAFGKVELEPGETKTLTFTLGYRDFAYYDPEASDWVVEEGIFHIHAAANAGDIRQSIPVEVTEAKKKFRRLYLDSQHTAVFEHPMAKKMYLDFLVETGVIAADRVEAMAPLLKGNYMGIYNVVTSLLGGNVTKEEMQAVLDRINEVCKDNRPAE | 3.5% | <0.5% | <0.5% |
| 854 (protein, listed as Corynespora cassiicola) MAQESGTVHDDESLQALVGQMTLEEKIKMLSAKNVWETPEIDRLGIPSLKVTDGPNGARGGSFFDGTTAACFPSCVSLAATFNRSLSRQVGKALEQEAITKGAYVLLGPTVCCHRSPLGGRNFEAFSEDPYLSGALASEYVKGLQEERVAATVKHFLANEQDTRRFSVNEKISERALREIYLRPFEMVAKEADPWCFMSSYPKINGAHVDAQSKFLVDILRKEWGYKGLIMSDWGATSTPESVRYGLDLETPGPPRWRTTDAVTKCLADGHIEESDIDARVLATLRLLKKVGKFDDRKTTPPEQAIDRPEHRALIRKAGGEGIVLLKNNGNLLPIDTRKTKKIALLGPLAKYAAAHGGGSASLNCHYKISPYDAFVARLGGDVEITHSKGAHIFRVYPDLEASCTNARGNSGFLAEYFMSSSTTEKPFWTEEFPRGSVTTLMNTKVIGCKTLKFTTTYQPPVSGSHYLSFSGLGPSQLFINDMLVAEQKEPTKDAMGFLLGVQEEVRIQYPFSSTQSYAISMVTHPSPFSNAELYLMENQCAIHIGFIAQEEIEHDVLSEAVDLASSADLAIVFVGNTIQWETEGQDLETMTLPADGSQDNLISQVVAANPNTIVVNTTGVPVELPWVDSVPALLQAWYAGQECGNAILDVLLGEVSPSGKLPISWPKKYEHTGCYGHFGLDSFESREVEYVEGVYVGYRWFDQWWGQDKEVRFPFGFGLSYTEFDISDARISGAISGDESSQVKVSANIRNIGDRFGAETVQIYVQPPALADLGRPLKDLVGFVKVELKPGETRDITVCFQKDNVSFWNEKANQWRVCRGTYNVLIATSSDPKDAKQALRFEVEEDLDFDP | 3.7% | <0.5% | <0.5% |
| 819 (protein, Propionibacterium australiense) MTTVHPDDYADRASELVAAMTLDEKASLTSGADFWNLKTVERLGLGAVMVTDGPHGLRKATNDAEIGIGQAVPATCFPTAAALGSTWDDELLEQVGAALGEEARAAGVAVVLGPGVNMKRSPLCGRNFEYFSEDPLVAGRAGAAMVRGVQSQGVGTSVKHFAANSQETDRMRIDARIGERALREIYLPAFERIVTQTRPWTVMCAYNKVNGTYASQHPWLLTTVLREDWGFGGLVVSDWGAVDQRVPGLAAGLDLEMPASGGVTDEQIARAVRTGELDEAVLDRAVQRIVALILAAQAVEPGTGFDTDAHHELARKAAAAGAVLLRNEPVDGSPVLPLDARDITGQAPLVVIGEFARTPRYQGAGSSQINPTRLDSALDALREQLGGAVRFEPGYRLAEATGMPGQELTDDELADRAVEAARGATVVLFAGLPAAVESEGYDRDDIELPNAQTTLIERVSAVAARTTVVLSNGSVVSVASWREKVDALLECWLGGQGGGSATADVLLGRSCPGGHLAESIPLALSDVPAQLNFPGSHSRVDHGEGVFVGYRGLDTMGREVAYPFGFGLTYTTFELTGVQATPVVTVADGTGLDETVAVVRGTLTNTGQRTGAQVVQLYLGRHEASRVARAPRELRGYEKITLAPGQSAPFEFALSRRDLSYWDEGTGCWQVEPGAYRAWVGFSSRDAAAVLPLQVTAPEPASPLGKDSTYAEWMAHPVGGPLLRTDARAFVDDMASSGAYELFAAMPLERLVRLPGSLLAPEDYLTLLDRAQAGQD | 3.2% | <0.5% | <0.5% |
| 876 (protein, listed as Pyrenochaeta sp.) MQLSEMALTGVEVDATDVEYILKQMSLDEKIQMLAAKNVWETPEIERVGIPSLKVTDGPNGARGGSFFDGTTAACFPASVSLAATFSRELSRQIGTALGQEAITKGAYAVLGPTVCCHRSPLGGRNFEAFSEDPYLSGTLASEYVQGLQQERVAATVKHFLANEQDTRRFSINQTISERALREIYLKPFEMVVKEAKPWCFMSSYPKINGKHVDAQSLFLEDILRKEWSYDGLVMSDWGATSTVESVSYGLDLEMPGPPRFRTPEAVHQALLKGTVSESDIDARVLTTLKLLERVGKFADRRDTPKETAVDRPEHRELIRKAGSEGIVLLKNDRGILPIDVTKTKKVALLGPLAKYAAAHGGGSASLNCHYKVSPFDAFKDRLSEDVEIAHSKGAHIFRVYPDLEEGCLNARQRPGFLAEYFMTSRVTEEPFLVEQFPRGSFTTLMNTRATGCKTVRFTTTYSPVTPGAHYLSFSGLGPSKFYINDELVAHQTESTKDAMGFLLGVQEEIRTQFVFEVGKEYNIVVETHPSPTSNAELYLLDNQCSVHLGLISQEEMEQDVLAEAVSLAKDADLAIVFVGNTTQWETEGQDLESMSLPANGSQDDLIVRVAAANPNTIVVNTTGVPVELPWIDSVPAFLQAWYAGQETGNAILDVLLGTTCPSGKLPISWPKKYEHTGCFGNFGLDSFESRQVDYVEGVFVGYRWFDNLWGGEKEVRFPFGFGLSYTTFEITGTSIKGSLSNDAHHVLRVSIKVKNVGKCLGAEIVQVYLKPPVTEGLERPQKTLAGFEKIELRVGEEREVHIAIGKENAAFWDENLSKWRVSTGVYEVLVATSSHPRDCRAVLETVVEDEFIFKA | 3.1% | <0.5% | <0.5% |

Reference: patent publication US20240026407A1, “MODIFICATION OF SAPONINS” (GLAXOSMITHKLINE BIOLOGICALS SA, priority 2020, published 2024)
